In US20050182242A1, “Global analysis of protein activities using proteome chips” (priority 2001, published 2005):

Tests used:
Settings in all cases: liposome binding signal on yeast proteome chip, Cy3-streptavidin detection
PI(4)P liposomes = test: Yeast proteome chip probed with PI(4)P liposomes
Source text: (§1) To identify PI-binding proteins in yeast, liposomes were used as probes because the liposome provides the most relevant physiological condition to assay the interactors. Six types of liposomes were used. Each contains phosphatidylcholine (“PC”) with 1% (w/w) N-(biotinoyl)-1,2-dihexadecanoyl-sn-glycero-3-phosphoethanolamine, triethylammonium salt (biotin DHPE). The biotinylated lipid serves as a label that can be detected by Cy3-streptavidin (21). In addition to PC, the five other liposomes contain either 5% (w/w) PI(3)P, PI(4)P, PI(3,4)P2, PI(4,5)P2, or PI(3,4,5)P3 (FIG. 3A).
(§2) The protein-liposome interaction was assayed as follows. Appropriate amounts of each lipid in chloroform were mixed and dried under nitrogen. The lipid mixture was resuspended in TBS buffer by vortexing. The liposomes were created by sonication. Blocked proteome chips were washed three to five times in PBS buffer, and the extra liquid on the glass surface was removed by tapping the slides vertically on a KIMWIPE™. 200 μl of liposome solution was added to the proteome chip and immediately covered by a hydrophobic plastic cover slip (GRACE BIO-LAB™, USA). After trapped air bubbles were removed, the chip was incubated in a humidity chamber at RT for one hour. To remove the cover slip, the chip was immersed into large volume of PBS buffer (50 ml), so that the slip would float away. The chip was then moved to a second PBS bath (>50 ml) and washed 3×5 min with shaking at RT. After removing extra liquid on the surface of the chip, about 100 μl of Cy3 or Cy5 conjugated streptavidin (PIERCE™, USA; 1:2000 to 1:4000 dilution) was added to the surface and covered by a hydrophobic plastic cover slip (GRACE BIO-LABS™, USA). The chip was incubated for greater than 30 min in the dark at RT. The chip was then washed as described above. To completely remove the liquid on the chip, the chip was spun to dryness at 1500-2000 rpm for 5-10 min at RT.
(§3) • 1. S. Fields, Y. Kohara, D. J. Lockhart, Proc. Natl. Acad. Sci. 96, 8825 (1999); A. Goffeau et al., Science 274, 563 (1996). • 2 P. Ross-Macdonald et al., Nature 402, 413 (1999); J. L., DeRisi, V. R. Iyer, P. O. Brown, Science 278, 680 (1997); E. A. Winzeler et al., Science 285, 901 (1999). P. Uetz et al., Nature 403, 623 (2000); T. Ito et al., Proc. Natl. Acad. Sci. USA. 97, 1143 (2000) • 3 H. Zhu, M. Snyder, Curr. Opin. Chem. Biol. 5, 40 (2001). • 4 M. R. Martzen et al., Science 286, 1153 (1999). • 5 H. Zhu et al., Nat. Genet. 26, 283 (2000). • 6 G. MacBeath, S. L. Schreiber, Science 289, 1760 (2000). • 7 A. Caveman, J. Cell Sci. 113, 3543 (2000). • 8 P. Arenkov et al., Anal. Biochem 278, 123 (2000). • 9 D. A. Mitchell, T. K. Marshall, R. J. Deschenes, Yeast 9, 715 (1993). The expression vector pEGH was created by inserting an RGS-HisX6 epitope tag between the GST gene and the polycloning site of pEG(KG). The yeast ORFs were cloned using the strategy described previously (5), except every step was done in a 96-well format. Plasmid DNAs confirmed by DNA sequencing were reintroduced into both yeast (Y258) and E. coli (DH5a). […] 0.1 mM calcium was present in buffers in all subsequent steps. The chip was washed three times with PBS at RT. Cy3-conjugated streptavidin (Jackson IR, USA) (1:5000 dilution) was added to the chip and incubated for 30 min at RT. After extensive washing, the chip was spun dry and scanned using a microarray scanner; the data was subsequently acquired with the GENEPIX™ array densitometry software (Axon, USA). • 12 S. S. Hook, A. R. Means, Annu. Rev. Pharmacol. Toxicol.41, 471 (2001). • 13 M. S. Cyert, R. Kunisawa, D. Kaim, J. Thorner, Proc. Natl. Acad. Sci. USA 88, 7376 (1991). • 14 D. A. Stirling, K. A. Welch, M. J. Stark, EMBO J. 13, 4329 (1994). • 15 F. Bohl, Kruse, EMBO J. 19, 5514 (2000); E. Bertrand et al., Mol. Cell 2, 437 (1998). • 16 D. C. Winter, E. Y. Choe, R. Li, Proc. Nat. Acad Sci. USA 96, 7288 (1999). • 17 C.

PI(3,4,5)P3 liposomes = test: Yeast proteome chip probed with PI(3,4,5)P3 liposomes
Source text: as §1, §2, §3

PI(4,5)P2 liposomes = test: Yeast proteome chip probed with PI(4,5)P2 liposomes
Source text: as §1, §2, §3

[1] = test system: phosphatidylcholine (PC) liposomes; test: Yeast proteome chip probed with PC liposomes
Source text: as §1, §2, §3

PI(3,4)P2 liposomes = test: Yeast proteome chip probed with PI(3,4)P2 liposomes
Source text: as §1, §2, §3

Molecule | PI(4)P (PI(4)P liposomes) | PI(3, 4, 5)P3 (PI(3,4,5)P3 liposomes) | PI(4, 5)P2 (PI(4,5)P2 liposomes) | PC [1] | PI(3, 4)P2 (PI(3,4)P2 liposomes)
GFA1: yeast GST-HisX6 fusion protein on proteome chip (protein, UniProt P14742 2-717, looked up, GST-His6 tag, yeast GST-HisX6 fusion protein on proteome chip) Glutamine--fructose-6-phosphat …: CGIFGYCNYLVERSRGEIIDTLVDGLQRLEYRGYDSTGIAIDGDEADSTFIYKQIGKVSALKEEITKQNPNRDVTFVSHCGIAHTRWATHGRPEQVNCHPQRSDPEDQFVVVHNGIITNFRELKTLLINKGYKFESDTDTECIAKLYLHLYNTNLQNGHDLDFHELTKLVLLELEGSYGLLCKSCHYPNEVIATRKGSPLLIGVKSEKKLKVDFVDVEFPEENAGQPEIPLKSNNKSFGLGPKKAREFEAGSQNANLLPIAANEFNLRHSQSRAFLSEDGSPTPVEFFVSSDAASVVKHTKKVLFLEDDDLAHIYDGELHIHRSRREVGASMTRSIQTLEMELAQIMKGPYDHFMQKEIYEQPESTFNTMRGRIDYENNKVILGGLKAWLPVVRRARRLIMIACGTSYHSCLATRAIFEELSDIPVSVELASDFLDRKCPVFRDDVCVFVSQSGETADTMLALNYCLERGALTVGIVNSVGSSISRVTHCGVHINAGPEIGVASTKAYTSQYIALVMFALSLSDDRVSKIDRRIEIIQGLKLIPGQIKQVLKLEPRIKKLCATELKDQKSLLLLGRGYQFAAALEGALKIKEISYMHSEGVLAGELKHGVLALVDENLPIIAFGTRDSLFPKVVSSIEQVTARKGHPIIICNENDEVWAQKSKSIDLQTLEVPQTVDCLQGLINIIPLQLMSYWLAVNKGIDVDFPRNLAKSVTVE | 3.05 | −6.53 | −7.62 | −1.76 | −8.63
YER046W: yeast GST-HisX6 fusion protein on proteome chip (protein, UniProt P40031 1-143, looked up, GST-His6 tag, yeast GST-HisX6 fusion protein on proteome chip) Sporulation-specific protein …: MGKNHFLKDFSALPEDVLIENERGITLLGYPLFSPKILLPHVDPPQFQRLNTENGSLIALSKNTISNFIELYPIDLSTERTAGSSSSQMTKWFVLMDYKEKYDIDDQGWCYSWNFNNSRWKSKNGLVRRRVWVRLPTTSHGLD | 19.16 | 5.62 | 6.31 | −18.20 | 11.62
RTG3: yeast GST-HisX6 fusion protein on proteome chip (protein, UniProt P38165 1-486, looked up, GST-His6 tag, yeast GST-HisX6 fusion protein on proteome chip) Retrograde regulation protein …: MMNNNESEAENQRLLDELMNQTKVLQETLDFSLVTPTPHHNDDYKIHGSAYPGGETPAQQHEKLSYINTHNSNDNNNLMGSQARSNSQTPTASTIYEEAESQSSYLDDMFRTSQGGRPVTQNSISSIGQGPLRSSYSMAYDSPVDRAMNTPLQQQEGLKAELPHDFLFQHGTDDTMYNLTDDLSSSLSSSINSDMMTPNTYSSSFSYNPQSLGPASVSSTYSPKVRSPSSSFRAGSFLSSSFRHGSINTPRTRHTSISSNMTENIGPGSVPKILGGLTSDEKLRRKREFHNAVERRRRELIKQKIKELGQLVPPSLLNYDDLGKQIKPNKGIILDRTVEYLQYLAEILEIQARKKKALLAKIKELEEKKSSVAALSPFTNNHHASSGQNNSENSEERIIDIRSVPNALMNEQNSKAELHNWEPPLYDSVGNHNHAGTMESHPHTNIHEELKEFLSGDLIEAEDNAKLMFGDDNSNPADYLLEFGSG | 12.19 | −5.29 | 12.41 | 5.58 | 0.16
PAT1: yeast GST-HisX6 fusion protein on proteome chip (protein, UniProt P25644 2-796, looked up, GST-HisX6 tag, yeast GST-HisX6 fusion protein on proteome chip) Deadenylation-dependent …: SFFGLENSGNARDGPLDFEESYKGYGEHELEENDYLNDETFGDNVQVGTDFDFGNPHSSGSSGNAIGGNGVGATARSYVAATAEGISGPRTDGTAAAGPLDLKPMESLWSTAPPPAMAPSPQSTMAPAPAPQQMAPLQPILSMQDLERQQRQMQQQFMNFHAMGHPQGLPQGPPQQQFPMQPASGQPGPSQFAPPPPPPGVNVNMNQMPMGPVQVPVQASPSPIGMSNTPSPGPVVGATKMPLQSGRRSKRDLSPEEQRRLQIRHAKVEKILKYSGLMTPRDKDFITRYQLSQIVTEDPYNEDFYFQVYKIIQRGGITSESNKGLIARAYLEHSGHRLGGRYKRTDIALQRMQSQVEKAVTVAKERPSKLKDQQAAAGNSSQDNKQANTVLGKISSTLNSKNPRRQLQIPRQQPSDPDALKDVTDSLTNVDLASSGSSSTGSSAAAVASKQRRRSSYAFNNGNGATNLNKSGGKKFILELIETVYEEILDLEANLRNGQQTDSTAMWEALHIDDSSYDVNPFISMLSFDKGIKIMPRIFNFLDKQQKLKILQKIFNELSHLQIIILSSYKTTPKPTLTQLKKVDLFQMIILKIIVSFLSNNSNFIEIMGLLLQLIRNNNVSFLTTSKIGLNLITILISRAALIKQDSSRSNILSSPEISTWNEIYDKLFTSLESKIQLIFPPREYNDHIMRLQNDKFMDEAYIWQFLASLALSGKLNHQRIIIDEVRDEIFATINEAETLQKKEKELSVLPQRSQELDTELKSIIYNKEKLYQDLNLFLNVMGLVYRDGEISELK | 158.95 | 56.47 | 66.63 | 160.24 | 10.05
BPL1: yeast GST-HisX6 fusion protein on proteome chip (protein, UniProt P48445 1-690, looked up, GST-HisX6 tag, yeast GST-HisX6 fusion protein on proteome chip) Biotin--protein ligase: MNVLVYNGPGTTPGSVKHAVESLRDFLEPYYAVSTVNVKVLQTEPWMSKTSAVVFPGGADLPYVQACQPIISRLKHFVSKQGGVFIGFCAGGYFGTSRVEFAQGDPTMEVSGSRDLRFFPGTSRGPAYNGFQYNSEAGARAVKLNLPDGSQFSTYFNGGAVFVDADKFDNVEILATYAEHPDVPSSDSGKGQSENPAAVVLCTVGRGKVLLTGPHPEFNVRFMRKSTDKHFLETVVENLKAQEIMRLKFMRTVLTKTGLNCNNDFNYVRAPNLTPLFMASAPNKRNYLQEMENNLAHHGMHANNVELCSELNAETDSFQFYRGYRASYDAASSSLLHKEPDEVPKTVIFPGVDEDIPPFQYTPNFDMKEYFKYLNVQNTIGSLLLYGEVVTSTSTILNNNKSLLSSIPESTLLHVGTIQVSGRGRGGNTWINPKGVCASTAVVTMPLQSPVTNRNISVVFVQYLSMLAYCKAILSYAPGFSDIPVRIKWPNDLYALSPTYYKRKNLKLVNTGFEHTKLPLGDIEPAYLKISGLLVNTHFINNKYCLLLGCGINLTSDGPTTSLQTWIDILNEERQQLHLDLLPAIKAEKLQALYMNNLEVILKQFINYGAAEILPSYYELWLHSNQIVTLPDHGNTQAMITGITEDYGLLIAKELVSGSSTQFTGNVYNLQPDGNTFDIFKSLIAKKVQS | 25.26 | 8.77 | 22.21 | 5.28 | 6.59
